These results are taken from publication PMC12538065.

In the data set the test system is Zn(II)-bound Fur homodimer (Escherichia coli (expressed in MC4100)). The experiment in a line: HinfI restriction site protection. Conditions: 0.5 uM (as monomer) sufficient to protect, not a Kd, 2 mM Mg2+, 3.2 nM pUC19-iuc, 20 mM Tris pH 8.0, 150 mM NaCl, 2 mM MgCl2, 0.1 mg/ml BSA, 10 min at room temperature, then HinfI (1 unit) 37 C 10 min.

The substance pUC19-iuc (Fur-box of iucABCD promoter) showed a binding of 0.5 µM.
